Data on one substance can be found in PMC7486399.

For the test, the target named is angiotensin-converting enzyme 2 (ACE2) protein, purified (UniProt Q9BYF1). Description: AFM single-molecule force spectroscopy (FD-curve-based AFM).

A word on the Kd: it is the constant that tells how readily two partners part at equilibrium. Read a high Kd as weaker binding. “SARS-CoV-2 spike glycoprotein receptor-binding domain (from UniProt P0DTC2 319-541) (domain or fragment)”: the Kd was found to be 120 nM, the bond lifetime τ was 111 ms and the interaction time was determined as 0.25 ms.
